The values below come from doi:10.1101/388868, “Heterodimerization of UNC-13/RIM regulates synaptic vesicle release probability but not priming” (bioRxiv, 2018).

Changes are numbered by the printed parent chain. Numbers in names are those of the source.

As usually defined, the stoichiometry N is the number of molecules, sites or subunits per partner or assembly.

Series [1] concerns the molecule itself. Put plainly: SEC; gel filtration of purified UNC-13L C2A, wild type or K49E; calibrated with alcohol dehydrogenase (150 kDa), bovine serum albumin (66 kDa) and carbonic anhydrase (29 kDa); void volume 10.78mL. In general terms: Size exclusion chromatography separates by hydrodynamic size, large species first.
The target in series [2] is T1, C. elegans UNC-13 long isoform residues 1-258 bearing the K49E mutation (C. elegans).
T1 chain: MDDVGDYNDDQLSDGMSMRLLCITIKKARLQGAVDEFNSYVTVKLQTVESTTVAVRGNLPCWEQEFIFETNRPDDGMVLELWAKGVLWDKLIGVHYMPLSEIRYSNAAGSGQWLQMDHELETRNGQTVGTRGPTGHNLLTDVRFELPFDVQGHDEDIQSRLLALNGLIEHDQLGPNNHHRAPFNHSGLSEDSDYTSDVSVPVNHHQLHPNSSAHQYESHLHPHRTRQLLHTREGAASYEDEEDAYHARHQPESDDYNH
Description: ITC. A general note: Isothermal titration calorimetry measures the heat released or taken up as one component is titrated into another.

B1: UNC-13L C2A domain, wild type (recombinant, gel filtration) (domain or fragment)
chain: T1 chain with E49K
Regarding B1, in series [1], the “stoichiometry N” value was determined as 2.

B2: C. elegans UNC-10 residues 62-121 WT (domain or fragment)
chain: KLVGTQDDAICQICQKTKFADGIGHKCFYCQLRSCARCGGRAQSKNKAIWACSLCQKRQQ
In the case of B2, the Ka in series [2] was 789000 M⁻¹.
